The test system of this data set is human recombinant LAP β1 (R&D), not treated with protease.
human recombinant LAP β1 (R&D), not treated with protease, sequence (chain, as listed by the source): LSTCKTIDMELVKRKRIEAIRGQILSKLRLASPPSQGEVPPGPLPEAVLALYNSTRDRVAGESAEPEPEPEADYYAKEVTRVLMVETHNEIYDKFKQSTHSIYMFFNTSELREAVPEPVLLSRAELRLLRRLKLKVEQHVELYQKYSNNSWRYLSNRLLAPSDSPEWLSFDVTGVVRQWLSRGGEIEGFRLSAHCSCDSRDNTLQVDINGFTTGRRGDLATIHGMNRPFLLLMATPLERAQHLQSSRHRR

human plasma kallikrein (Sigma), sequence (chain, as listed by the source): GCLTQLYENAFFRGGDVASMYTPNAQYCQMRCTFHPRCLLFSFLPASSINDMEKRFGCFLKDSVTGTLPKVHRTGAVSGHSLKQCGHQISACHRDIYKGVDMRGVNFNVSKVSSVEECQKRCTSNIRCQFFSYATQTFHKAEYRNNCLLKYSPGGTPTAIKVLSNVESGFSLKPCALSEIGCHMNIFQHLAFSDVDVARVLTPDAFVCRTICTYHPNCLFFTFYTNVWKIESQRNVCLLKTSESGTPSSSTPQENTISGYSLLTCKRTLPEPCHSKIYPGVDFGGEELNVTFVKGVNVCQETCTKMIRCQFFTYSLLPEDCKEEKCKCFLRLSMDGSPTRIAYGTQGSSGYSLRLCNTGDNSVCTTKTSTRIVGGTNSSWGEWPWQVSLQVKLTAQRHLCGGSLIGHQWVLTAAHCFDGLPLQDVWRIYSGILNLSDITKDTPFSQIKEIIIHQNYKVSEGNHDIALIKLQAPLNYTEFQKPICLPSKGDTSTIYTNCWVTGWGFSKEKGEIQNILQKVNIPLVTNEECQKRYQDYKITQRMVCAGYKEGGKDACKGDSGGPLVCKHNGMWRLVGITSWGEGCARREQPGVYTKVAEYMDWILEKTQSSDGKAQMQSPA
human recombinant matrix metalloprotease 3 (MMP3) (Alexis), sequence (chain, as listed by the source): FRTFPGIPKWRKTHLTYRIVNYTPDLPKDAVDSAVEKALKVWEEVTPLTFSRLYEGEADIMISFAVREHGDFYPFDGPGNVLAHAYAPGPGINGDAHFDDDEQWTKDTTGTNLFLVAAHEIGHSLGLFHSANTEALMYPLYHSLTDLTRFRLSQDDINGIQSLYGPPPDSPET

Regarding human plasma kallikrein (Sigma), the “limited degradation; cleavage site by N-terminal sequencing of the fragments” value is “plasma kallikrein specifically cleaves between 58 Arg and 59 Leu thereof”.

As for “human recombinant matrix metalloprotease 3 (MMP3) (Alexis)”, the “limited degradation; cleavage site by N-terminal sequencing of the fragments” value is “MMP3 specifically cleaves between 79 Ala and 80 Leu thereof”.
